{"source": "patent US10677782B2", "about": "“Methods of determining interferon having direct inhibitory effects on tumors and uses thereof” (SUPERLAB FAR EAST LIMITED, priority 2013, dated 2020)", "key": {"[1]": {"assay": "Tolerability and body weight of tumor-bearing mice, Example 4", "format": "in vivo, BALB/cA nu/nu mice", "details": "0.05 mg/mouse i.t. every other day; day 17; reasons unknown", "method": "(§1) Animals were assigned to treatment groups randomly. Initially, all animals were placed in one large animal cage. For assignment to the study, they were later separately housed, with 6 animals per cage per treatment group. Groups 1 and 2 are Control groups in which the animals were each administered the vehicle every other day after the first treatment. […] The animals in Groups 4, 5 and 6 were each given rSIFN-co every other day after the first treatment at 0.15 mg/mouse (Group 4) or 0.10 mg/mouse (Group 5) or 0.05 mg/mouse (Group 6), respectively. Tumor growth was monitored by measuring the length and width of each tumor twice a week during the course of the study. Each animal was also weighed twice a week during the course of the study.\nThe study was conducted as in Example 3, except as specifically indicated otherwise. Human xenografts for injection into the test animals were first established and prepared in a similar manner as in Example 1, but by inoculating 2.5×10^6 SPC-A4 cells subcutaneously (s.c.) in nude mice and passaging the well-grown tumors twice in nude mice. The 1.5 mm^3 fragments were then used for s.c. implantation into the test animals. The body weight of the animals averaged 22±2 g at dose initiation. In contrast to Example 3, the animals used in this study were all male and the study was conducted over a 21 day treatment period."}, "[2]": {"system": "human hepatoma SMMC-7721", "assay": "Human hepatoma SMMC-7721 xenografts in nude mice (Example 1)", "format": "in vivo", "details": "for TV (mm^3, mean ± SD) (D0): day 0, start of treatment", "method": "The test article was used without dilution. It was stored at 4° C. until thawed for injection.\nThe animals used were 4-6 weeks old male BALB/cA nu/nu mice, weighing about 23±2 g, obtained from the Shanghai Institute of Materia Medica (Shanghai, P.R. China). The study protocol was reviewed by the Committee on the Use and Care of Animals of Shanghai Institute of Materia Medica for compliance with regulations, and Committee approval was obtained prior to study initiation. Wherever possible, procedures used in this study were designed to avoid or minimize discomfort, distress, and pain to the animals. Animals that experience severe or chronic pain or distress that could not be relieved were painlessly euthanized, in accordance to regulations. Animals were housed 6 to a cage. They were ear-marked with ear hole punch identification. The room temperature was maintained at 25° C.±1° C. Lighting was set at 12 hr on and 12 hr off. Food was provided ad libitum. City tap water, filtered with a 5 micrometer (μm) filter, was provided to the animals ad libitum via water bottles. Neither the Study Director nor Huiyang Life Science and Technology Corp. was aware of any contaminant in the food or water that would interfere with or influence the intent and purpose of this study.\nThe test article (rSIFN-co) and the vehicle control were each administered intratumorally (i.t.). The test article was administered in a volume of 0.05 ml-0.15 ml per mouse per treatment, depending on the group to which the animal was assigned. […] Normal saline was injected in a volume of 0.15 ml per mouse, which was used as vehicle control.\nas §1\nBefore commencement of this study, the xenografts were passaged twice in nude mice. Under sterile conditions, well-grown tumors were cut into 1.5 mm^3 fragments and one such fragment was injected by trocar needle into the right flank of each study animal. […] Individual tumor size (length and width) was measured twice per week with microcalipers. Tumor volume (V) was calculated using the formula: V=(length×width^2)/2. Individual relative tumor volume (RTV) was calculated using the formula: RTV=Vt/V0, where Vt is the tumor volume on the day of measurement and V0 is the tumor volume on the day of first treatment. Therapeutic effect of the test article or control article was expressed in terms of TIC (%), using the formula: TIC (%) (mean RTV of the treated group/mean RTV of the control group)×100%; and in terms of % Inhibition, using the formula: % Inhibition=100%−T/C %."}, "[3]": {"assay": "Tolerability and body weight of tumor-bearing mice, Example 3", "format": "in vivo", "details": "0.05-0.15 mg/mouse i.t. every other day, 28 days", "method": "as §1\nThis study was conducted as in Example 1, except as specifically indicated otherwise. Human colon cancer xenografts were first established and prepared in a similar manner as in Example 1, by inoculating 5×10^6 HT-29 cells subcutaneously into nude mice and passaging the well-grown xenografts twice in nude mice. Then, 1.5 mm^3 fragments were prepared for s.c. implantation into the test animals. The body weight of the animals averaged 20±2 g at dose initiation In contrast to Example 1, the animals used in this study were all female. […]"}, "[4]": {"system": "procaspase-3, cleaved caspase-3, procaspase-8, cleaved caspase-8, PARP in SW620 cells", "assay": "Apoptosis-related molecular markers by Western Blot", "format": "cell-based, human", "details": "24 hr or 48 hr; interferons at 10 mcg/ml", "excerpt": "(§2) Thereafter, apoptosis-related molecular markers were monitored by Western Blot. The primary antibodies used were mouse monoclonal anti-beta-tubulin (1:2000, Cat #: CW0098A) and mouse monoclonal anti-GAPDH (1:2000, Cat #: CW0100A) (Kangwei Biotechnology, China); mouse monoclonal anti-PARP (1:1000, Cat #: se-2007, Santa Cruz Biotechnology, Inc.); rabbit monoclonal anti-procaspase 3 (1:1000, Cat #: 9665), and rabbit polyclonal anti-cleaved caspase 3 (1:1000, Cat #: 9661) (Cell Signaling Technology, USA); goat polyclonal anti-procaspase 8 (1:1000, Cat #: sc-6136, Santa Cruz Biotechnology, Inc); rabbit monoclonal anti-cleaved caspase 8 (1:1000, Cat #: 9496) (Cell Signaling Technology, USA)."}, "[5]": {"system": "procaspase-3, cleaved caspase-3, procaspase-8, cleaved caspase-8, PARP in A549 cells", "assay": "Apoptosis-related molecular markers by Western Blot", "format": "cell-based, human", "details": "24 hr or 48 hr; interferons at 10 mcg/ml", "excerpt": "as §2"}, "[6]": {"details": "0.05 mg/mouse i.t. every other day, day 21"}}, "data": [{"molecule": "rSIFN-co: Recombinant super-compound interferon; amino acid sequence SEQ ID NO: 1 (same as interferon alfacon-1), encoded by SEQ ID NO: 2, novel tertiary structure (protein, Amino acid sequence of recombinant interferon) MCDLPQTHSLGNRRALILLAQMRRISPFSCLKDRHDFGFPQEEFDGNQFQKAQAISVLHEMIQQTFNLFSTKDSSAAWDESLLEKFYTELYQQLNDLEACVIQEVGVEETPLMNVDSILAVKKYFQRITLYLTEKKYSPCAWEVVRAEIMRSFSLSTNLQERLRRKE", "values": [{"measurement": "deaths", "setting": "[1]", "value": "one mouse"}, {"measurement": "TV (mm^3, mean ± SD) (D0)", "setting": "[2]; 0.05 mg/mouse i.t. every other day", "value": "124 ± 26", "unit": "mm^3"}, {"measurement": "% Inhibition", "setting": "[2]; [6]", "value": 48.10, "unit": "%"}, {"measurement": "TV (mm^3, mean ± SD) (D21)", "setting": "[2]; [6]", "value": "592 ± 139", "unit": "mm^3"}, {"measurement": "TV (mm^3, mean ± SD) (D0)", "setting": "[2]; 0.10 mg/mouse i.t. every other day", "value": "124 ± 15", "unit": "mm^3"}, {"measurement": "TV (mm^3, mean ± SD) (D21)", "setting": "[2]; 0.10 mg/mouse i.t. every other day, day 21", "value": "573 ± 287", "unit": "mm^3"}, {"measurement": "TV (mm^3, mean ± SD) (D0)", "setting": "[2]; 0.15 mg/mouse i.t. every other day", "value": "123 ± 20", "unit": "mm^3"}, {"measurement": "TV (mm^3, mean ± SD) (D21)", "setting": "[2]; 0.15 mg/mouse i.t. every other day, day 21", "value": "505 ± 226", "unit": "mm^3"}, {"measurement": "tolerability: signs of drug toxicity and changes in weight", "setting": "[3]", "value": "no signs of drug toxicity and minimal changes in weight"}, {"measurement": "level of apoptosis-related molecular markers (procaspase-3, procaspase-8, PARP, cleaved caspase-3, cleaved caspase-8)", "setting": "[4]", "value": "neither of the interferons, IFN alpha-2b nor rSIFN-co, caused any reduction in the level of procaspase-3 or procaspase-8 or PARP, or induced any enhancement in the level of cleaved caspase-3 or cleaved caspase-8"}, {"measurement": "level of apoptosis-related molecular markers (procaspase-3, procaspase-8, PARP, cleaved caspase-3, cleaved caspase-8)", "setting": "[5]", "value": "neither of the interferons, IFN alpha-2b nor rSIFN-co, caused any reduction in the level of procaspase-3 or procaspase-8 or PARP, or induced any enhancement in the level of cleaved caspase-3 or cleaved caspase-8"}]}]}
